The values below are quoted from earlier work in US20180296685A1, “TARGETED CONSTRUCTS AND FORMULATIONS THEREOF” (TARVEDA THERAPEUTICS, INC., priority 2017, published 2018).

The conditions of the data set: transthyretin, serum protein.

For the substance Transthyretin, the in vivo half-life entry was “around 48 h”.
